Measurements published in the supplement of paper PMC7877785.
± gives the uncertainty stated by the source.

Assay: self-splicing fitness, log relative to wild type (ln ratio); higher = more splicing; Tetrahymena group I intron in knt gene, E. coli kanamycin selection, DiMSum; sequences stand for … in CUCUCU…GGAGGGAAAAGUUAUCAGGCAUGCACCUGGUAGCUAGUCUUUAAACCAAUAGAUUGCAUCGGUUUAAAAGGCAAGACCGUCAAAUUGCGGGAAAGGGGUCAACAGCCGUUCAGUACCAAGUCUCAGGGGAAACUUUGAGAUGGCCUUGCAAAGGGUAUGGUAAUAAGCUGACGGACAUGGUCCUAACCACGCAGCCAAGUCCUAAGUCAACAGAUCUUCUGUUGAUAUGGAUGCAGUUCACAGACUAAAUGUCGGUCGGGGAAGAUGUAUUCUUCUCAUAAGAUAUAGUCGGACCUCUCCUUAAUGGGAGCUAGCGGAUGAAGUGAUGCAACACUGGAGCCGCUGGGAACUAAUUUGUAUGCGAAAGUAUAUUGAUUAGUUUUGGAGUACUCGUGGUCG
Method in brief: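 The eight P1ex-region nucleotides of an intron in the knt kanamycin-resistance gene on pET-22b(+) were all randomised and the library put into E. coli BL21(DE3). Six replicate transformations were grown overnight at 37°C or 30°C on LB agar with or without 25 μg/mL kanamycin, together with 100 μg/mL carbenicillin, 50 μM IPTG and 0.2% rhamnose. Colonies were pooled and amplicon-sequenced on an Illumina HiSeq 2500. Fitness from DiMSum is the error-weighted combination of wild-type-normalised replicate fold changes, kanamycin over none.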

Sequence	self-splicing fitness (ln) (30 °C)	self-splicing fitness (ln) (37 °C)
ACUGAGCAAUAUUACGCGAA	-3.01 ± 0.33	-2.77 ± 0.36
ACUGAGCAAUAUUACGCGAG	-2.27 ± 0.1	-1.11 ± 0.096
ACUGAGCAAUAUUACGCGCC	-2.73 ± 0.33	–
ACUGAGCAAUAUUACGCUCC	-2.62 ± 0.45	-1.18 ± 0.27
ACUGAGCAAUAUUACGCUGG	-3.54 ± 0.2	-1.4 ± 0.2
ACUGAGCAAUAUUACGGAGG	-2.97 ± 0.18	-2.76 ± 0.25
ACUGAGCAAUAUUACGGCUC	–	-1.73 ± 0.48
ACUGAGCAAUAUUACGGGAG	-3.29 ± 0.2	-2.74 ± 0.2
ACUGAGCAAUAUUACGGUAA	-2.81 ± 0.27	-2.8 ± 0.34
ACUGAGCAAUAUUACGGUCC	–	-2.26 ± 0.33
ACUGAGCAAUAUUACGUACU	-2.16 ± 0.19	-1.42 ± 0.19
ACUGAGCAAUAUUACGUGCC	-2.31 ± 0.23	–
ACUGAGCAAUAUUACGUUCC	-3.65 ± 0.35	-2.52 ± 0.24
ACUGAGCAAUAUUACGUUCG	-2.2 ± 0.15	-0.355 ± 0.12
ACUGAGCAAUAUUACGUUGG	-4.04 ± 0.2	-2.17 ± 0.18
ACUGAGCAAUAUUACGUUGU	-3.71 ± 0.26	-1.53 ± 0.14
ACUGAGCAAUAUUACGUUUA	-2.52 ± 0.2	-3.08 ± 0.24
ACUUAGCAAUAUUACGAAAA	-2.79 ± 0.26	-2.01 ± 0.27
ACUUAGCAAUAUUACGACAU	-0.756 ± 0.012	-0.251 ± 0.032
ACUUAGCAAUAUUACGACGC	-0.152 ± 0.066	-0.0939 ± 0.072
ACUUAGCAAUAUUACGAGAG	-2.21 ± 0.12	-0.741 ± 0.11
ACUUAGCAAUAUUACGAUAG	-2.71 ± 0.12	-1.7 ± 0.16
ACUUAGCAAUAUUACGCAAA	-3.03 ± 0.41	-1.24 ± 0.25
ACUUAGCAAUAUUACGCACA	-1.26 ± 0.12	-1.02 ± 0.12
ACUUAGCAAUAUUACGCAGU	-3.83 ± 0.35	-2.17 ± 0.21

Sequence	self-splicing fitness (ln) (30 °C)	self-splicing fitness (ln) (37 °C)
ACUUAGCAAUAUUACGCGAG	-1.93 ± 0.15	-1.76 ± 0.13
ACUUAGCAAUAUUACGCGGC	-2.71 ± 0.25	-1.12 ± 0.23
ACUUAGCAAUAUUACGGAGU	-3.58 ± 0.47	-3.1 ± 0.3
ACUUAGCAAUAUUACGGCGU	-0.204 ± 0.088	0.491 ± 0.13
ACUUAGCAAUAUUACGGCUA	-2.6 ± 0.2	-0.214 ± 0.1
ACUUAGCAAUAUUACGGGUA	-1.14 ± 0.11	-1.54 ± 0.14
ACUUAGCAAUAUUACGGUAA	-2.66 ± 0.15	-1.42 ± 0.14
ACUUAGCAAUAUUACGGUGG	-3.72 ± 0.3	–
ACUUAGCAAUAUUACGUAUA	-3.22 ± 0.14	-2.41 ± 0.16
ACUUAGCAAUAUUACGUAUG	-3.35 ± 0.22	-2.2 ± 0.16
ACUUAGCAAUAUUACGUCGA	-2.06 ± 0.16	-1.23 ± 0.16
ACUUAGCAAUAUUACGUGAA	-2.94 ± 0.15	-1.5 ± 0.12
ACUUAGCAAUAUUACGUGCG	-1.29 ± 0.1	0.152 ± 0.15
ACUUAGCAAUAUUACGUUUU	-3.39 ± 0.12	-1.93 ± 0.1
AGAAAGCAAUAUUACGAACA	-0.534 ± 0.16	-0.288 ± 0.16
AGAAAGCAAUAUUACGAACU	-0.0259 ± 0.096	0.00874 ± 0.12
AGAAAGCAAUAUUACGAAGG	-3.59 ± 0.25	-1.74 ± 0.2
AGAAAGCAAUAUUACGACAC	-0.194 ± 0.11	-0.75 ± 0.13
AGAAAGCAAUAUUACGAGGC	-3.15 ± 0.42	-2.66 ± 0.41
AGAAAGCAAUAUUACGAGGU	-3.59 ± 0.26	-1.93 ± 0.23
AGAAAGCAAUAUUACGCAGG	-2.89 ± 0.15	-1.4 ± 0.15
AGAAAGCAAUAUUACGCAUU	-2.49 ± 0.15	-2.06 ± 0.22
AGAAAGCAAUAUUACGCCAU	-3.16 ± 0.2	-2.21 ± 0.2
AGAAAGCAAUAUUACGCCGG	-1.43 ± 0.25	-1.62 ± 0.24
AGAAAGCAAUAUUACGCCUG	-0.436 ± 0.11	-0.62 ± 0.14

Sequence	self-splicing fitness (ln) (30 °C)	self-splicing fitness (ln) (37 °C)
AGAAAGCAAUAUUACGCGCU	-0.789 ± 0.15	-1.26 ± 0.2
AGAAAGCAAUAUUACGCGUA	-1.71 ± 0.1	-0.388 ± 0.082
AGAAAGCAAUAUUACGGAAC	-3.04 ± 0.25	-1.84 ± 0.29
AGAAAGCAAUAUUACGGCCA	-0.632 ± 0.096	-0.181 ± 0.13
AGAAAGCAAUAUUACGGCGG	-0.593 ± 0.1	-0.586 ± 0.14
AGAAAGCAAUAUUACGGCUA	-0.324 ± 0.12	0.117 ± 0.13
AGAAAGCAAUAUUACGGGGA	-3.05 ± 0.17	-2.07 ± 0.17
AGAAAGCAAUAUUACGGUCC	-0.555 ± 0.12	0.317 ± 0.16
AGAAAGCAAUAUUACGUACA	-0.839 ± 0.075	-0.379 ± 0.1
AGAAAGCAAUAUUACGUACG	-1.26 ± 0.12	0.0255 ± 0.13
AGAAAGCAAUAUUACGUCAU	-1.55 ± 0.079	-0.954 ± 0.096
AGAAAGCAAUAUUACGUGAA	-2.39 ± 0.13	-1.96 ± 0.12
AGAAAGCAAUAUUACGUGAU	-2.17 ± 0.069	-1.25 ± 0.091
AGAAAGCAAUAUUACGUUCC	-2.59 ± 0.43	-1.23 ± 0.39
AGAAAGCAAUAUUACGUUUA	-1.96 ± 0.13	-1.04 ± 0.11
AGAAAGCAAUAUUACGUUUC	-3.82 ± 0.15	-2.09 ± 0.1
AGACAGCAAUAUUACGAAAA	–	-1.44 ± 0.29
AGACAGCAAUAUUACGAAAC	-3.76 ± 0.27	-2.66 ± 0.34
AGACAGCAAUAUUACGAAGC	–	-1.62 ± 0.28
AGACAGCAAUAUUACGAAGG	-3.88 ± 0.18	-2.75 ± 0.23
AGACAGCAAUAUUACGAAUC	–	-3.41 ± 0.47
AGACAGCAAUAUUACGAAUU	-2.74 ± 0.1	-1.27 ± 0.11
AGACAGCAAUAUUACGCAGC	-2.72 ± 0.23	-2.19 ± 0.39
AGACAGCAAUAUUACGCAUC	-2.73 ± 0.11	-2.18 ± 0.16
AGACAGCAAUAUUACGCAUU	-3.41 ± 0.12	-1.45 ± 0.087

Sequence	self-splicing fitness (ln) (30 °C)	self-splicing fitness (ln) (37 °C)
AGACAGCAAUAUUACGCGAG	-1.22 ± 0.091	-0.818 ± 0.094
AGACAGCAAUAUUACGCGGA	-2.87 ± 0.14	-1.58 ± 0.12
AGACAGCAAUAUUACGCUUA	-0.813 ± 0.086	-0.083 ± 0.12
AGACAGCAAUAUUACGGAAG	-4.03 ± 0.3	-1.94 ± 0.18
AGACAGCAAUAUUACGGAGC	-3.94 ± 0.17	-2.93 ± 0.24
AGACAGCAAUAUUACGGCUA	-0.252 ± 0.08	-0.286 ± 0.083
AGACAGCAAUAUUACGGGCA	-1.18 ± 0.075	-0.503 ± 0.079
AGACAGCAAUAUUACGGUCC	-3.24 ± 0.27	-1.68 ± 0.28
AGACAGCAAUAUUACGGUUU	-3.25 ± 0.11	-1.32 ± 0.082
AGACAGCAAUAUUACGUACA	-0.745 ± 0.078	-0.238 ± 0.097
AGACAGCAAUAUUACGUACG	-1.22 ± 0.07	-0.121 ± 0.094
AGACAGCAAUAUUACGUCAA	-1.68 ± 0.1	-1.35 ± 0.09
AGACAGCAAUAUUACGUGCG	-0.833 ± 0.077	-0.653 ± 0.083
AGACAGCAAUAUUACGUGUG	-2 ± 0.063	-1.44 ± 0.072
AGAGAGCAAUAUUACGACGC	-2.54 ± 0.34	-0.3 ± 0.28
AGAGAGCAAUAUUACGAGGC	-2.09 ± 0.25	–
AGAGAGCAAUAUUACGAUUC	-3.41 ± 0.35	-1.24 ± 0.32
AGAGAGCAAUAUUACGCAGG	-2.58 ± 0.13	-3.21 ± 0.33
AGAGAGCAAUAUUACGCGCU	-1.89 ± 0.35	–
AGAGAGCAAUAUUACGCUGG	-3.07 ± 0.27	-2.4 ± 0.32
AGAGAGCAAUAUUACGGCCC	-1.82 ± 0.28	-1.71 ± 0.48
AGAGAGCAAUAUUACGGCUU	-1.65 ± 0.16	-1.15 ± 0.25
AGAGAGCAAUAUUACGGUCG	-3.33 ± 0.35	-1.63 ± 0.35
